Laboratory results from publication PMC5121336.

Molecular target: human LDL (low-density lipoprotein) (human)
Test: SPR; LDL amine-coupled to a CM5 chip (Biacore T100); LDLR^ecto (5-388 nM) or ALK1^ecto (0.19-15.3 uM) as analytes, single cycle kinetics; 25 °C; 25 mM HEPES pH 7.4, 150 mM NaCl, 0.1 mM CaCl2; 1:1 binding model; apparent

ALK1^ecto-Fc, sequence (P37023 22-118): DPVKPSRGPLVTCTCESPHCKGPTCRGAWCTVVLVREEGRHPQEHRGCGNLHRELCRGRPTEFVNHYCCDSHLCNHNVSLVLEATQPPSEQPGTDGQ

| Substance | Kd [µM] |
| --- | --- |
| ALK1^ecto-Fc (from UniProt P37023 22-118) (Fc fusion) | 0.2 |
| LDLR^ecto-(His)6 (from UniProt P01130 22-788) (domain or fragment) | 0.007 |
